The nature of this data set: pseudovirus neutralisation, TZM-bl. Particulars: glycan lost; control: wild type.
Take HIV-1 25711-2.4 Env: N332A: the “other: neutralisation sensitivity, other: ID50 (reciprocal plasma dilution)” value was “decreases, 357.36 vs 1822.04”. For HIV-1 25711-2.4 Env: N301A the value was “decreases, 749.81 vs 1822.04”; for HIV-1 CAP239.G3 Env: N160A, “increases, 4184.00 vs 1096.00, Fold decrease in ID50 0.26”. As for HIV-1 25711-2.4 Env: N160A, the entry is “no change, 1484.35 vs 1822.04”; as for HIV-1 CAP239.G3 Env: N332A, “decreases, 204.60 vs 1096.00”.

The values above are taken from article PMC5006590.
